Here are results for one molecule from article PMC9850920.

The target of the data set is T1, METTL16-His6 (full length) (Homo sapiens, UniProt Q86W50).
T1 sequence: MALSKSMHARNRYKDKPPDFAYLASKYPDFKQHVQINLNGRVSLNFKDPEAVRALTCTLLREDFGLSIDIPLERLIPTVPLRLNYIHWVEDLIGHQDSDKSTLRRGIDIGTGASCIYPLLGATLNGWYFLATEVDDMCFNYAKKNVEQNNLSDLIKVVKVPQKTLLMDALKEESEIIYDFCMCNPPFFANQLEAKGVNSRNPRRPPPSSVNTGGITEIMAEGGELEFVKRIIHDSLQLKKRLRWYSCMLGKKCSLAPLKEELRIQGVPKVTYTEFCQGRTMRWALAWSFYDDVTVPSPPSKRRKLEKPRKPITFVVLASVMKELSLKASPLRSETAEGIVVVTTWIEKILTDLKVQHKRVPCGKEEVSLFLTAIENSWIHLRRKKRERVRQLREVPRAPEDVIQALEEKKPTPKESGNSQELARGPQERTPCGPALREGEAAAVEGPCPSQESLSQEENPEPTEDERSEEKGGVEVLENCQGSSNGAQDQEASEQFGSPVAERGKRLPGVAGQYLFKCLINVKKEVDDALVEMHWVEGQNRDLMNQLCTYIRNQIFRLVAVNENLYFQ
Description: MST.

B1: MALAT1 triple helix (structured_RNA)
RNA: GGAAGGUUUUUCUUUUCCUGAGAAAACAACACGUAUUGUUUUCUCAGGUUUUGCUUUUUGGCCUUUUUCUAGCUUAAAAAAAAAAAAAGCAAAA
In turn, B1 came in with a Kd of 31 ± 3 nM.

For orientation: Kd means the equilibrium constant for the complex coming apart. Read a low Kd as higher affinity.
